The test system of one assay is THP-1 cells. As to the kind of experiment: Monocyte-macrophage differentiation of THP-1 cells (FACS / qRT-PCR of CD14, CD11B). The format is cell-based, human. The note with it: THP-1 cells, co-treatment of ATRA with RSPO2. The protocol:
Cultured cells were lysed in Macherey-Nagel RAI buffer containing 1% β-mercaptoethanol and total RNAs were isolated using NucleoSpin RNA isolation kit (Macherey-Nagel 740955). Reverse transcription and PCR amplification were performed. Primers used in this study are listed in Supplementary Table 1. Graphs show relative gene expressions to GAPDH. […] Statistical analyses were performed using PRISM7 software with unpaired t-test or one-way ANOVA test.
For analyzing macrophage differentiation of THP-1, cells were harvested, pelleted and resuspended in ice-cold blocking buffer (PBS supplemented with 1% BSA and 0.1% NaN3). Cells were treated with Fc Receptor Binding Inhibitor as recommended by the manufacturer (eBioscience 14916173) and stained directly with FITC/APC-conjugated antibodies diluted in blocking buffer or with non-conjugated primary antibodies followed by fluorochrome-labeled secondary antibodies. Isotype-matched antibodies were used as controls. Dead cells were excluded by counterstaining with propidium iodide. For analyzing apoptosis of THP-1, cells were fixed in 4% PFA, permeabilized by MeOH and blocked with PBS supplemented with 1% BSA and 0.1% Tween-20. Cells were stained with anti-active Caspase-3 antibody and fluorochrome-labeled secondary antibody. FACS Samples were analyzed with FACSCalibur or FACSCanto (BD Biosciences). 10,000 events per samples were acquired, and results were processed with Cell Quest or FACSDiva software (BD Biosciences). For BMP4 stimulation, cells were treated with 5 and 25 ng ml^−1 recombinant human BMP4 protein (R&D systems 314-BP). 100, 300 and 1000 nM LDN […] (Tocris 6053) were used for rescue assay. For the THP-1 cell number quantification and differentiation validation in vivo, bone marrow cells were harvested from tibias of NSG mice and red blood cells were removed by ACK Lysing Buffer (Gibco A1049201). Cells were stained and analyzed as above. Here, 50,000 PI-negative events per samples were acquired.
THP-1 cells were treated with 0.3, 1.0 and 3.0 μg ml^−1 goat polyclonal anti-RSPO2 antibodies (R&D systems AF3266) or goat polyclonal GFP antibodies (ABIN 100085). After 48 hours, medium was replaced including fresh antibodies—and incubated another 24 hours. Western blot analysis and FACS analyses were performed as discussed above.
The sequences of shRSPO2 and shControl (Table 1) were synthesized, inserted into the transfer plasmid Tet-pLKO-puro (Addgene 21915) and validated by sequencing. Lentivirus was produced with the 3rd generation lentiviral system according to the protocol available at the Trono lab as described (www.epfl.ch/labs/tronolab/). THP-1 cells were infected with lentivirus with 8 μg ml^−1 Polybrene (Sigma TR-1003) and selected with 0.5 μg ml^−1 puromycin (Calbiochem 540411). Single cell clones were obtained by limiting dilutions. The shRNA expression of clones was validated by monitoring RSPO2 expression after doxycycline treatment (1.0 μg ml^−1) for 3 days.

The next assay addresses T1, ALK3 (Homo sapiens, UniProt P36894).
T1 construct: expressed in transfected cells; host or cells: HEK293T
Kind of assay: Cell surface binding assay in HEK293T cells transfected with ALK3. How it is done:
(§1) Cell surface binding assays were carried essentially out as previously described (Dosch et al. (1997), Development 124, 2325-2334). In brief, human ALK3-HA and Xenopus tropicalis LGR4 DNA were transfected in HEK293T cells, and incubated with 1.5 U ml^−1 conditioned media for 3 hours on ice. After several washes and crosslinking, cells were treated with 2 mM Levamisole for 20 min to inactivate endogenous AP activities and developed with BM-Purple (Sigma 11442074001). Cells were mounted with Fluoromount G. Images were obtained using LEICA DMIL microscope/Canon DS126311 camera.

The target of a further assay is T2, LGR4 (Xenopus tropicalis, UniProt B0BLW3).
T2 construct: expressed in transfected cells; host or cells: HEK293T
T2 sequence (B0BLW3 22-955): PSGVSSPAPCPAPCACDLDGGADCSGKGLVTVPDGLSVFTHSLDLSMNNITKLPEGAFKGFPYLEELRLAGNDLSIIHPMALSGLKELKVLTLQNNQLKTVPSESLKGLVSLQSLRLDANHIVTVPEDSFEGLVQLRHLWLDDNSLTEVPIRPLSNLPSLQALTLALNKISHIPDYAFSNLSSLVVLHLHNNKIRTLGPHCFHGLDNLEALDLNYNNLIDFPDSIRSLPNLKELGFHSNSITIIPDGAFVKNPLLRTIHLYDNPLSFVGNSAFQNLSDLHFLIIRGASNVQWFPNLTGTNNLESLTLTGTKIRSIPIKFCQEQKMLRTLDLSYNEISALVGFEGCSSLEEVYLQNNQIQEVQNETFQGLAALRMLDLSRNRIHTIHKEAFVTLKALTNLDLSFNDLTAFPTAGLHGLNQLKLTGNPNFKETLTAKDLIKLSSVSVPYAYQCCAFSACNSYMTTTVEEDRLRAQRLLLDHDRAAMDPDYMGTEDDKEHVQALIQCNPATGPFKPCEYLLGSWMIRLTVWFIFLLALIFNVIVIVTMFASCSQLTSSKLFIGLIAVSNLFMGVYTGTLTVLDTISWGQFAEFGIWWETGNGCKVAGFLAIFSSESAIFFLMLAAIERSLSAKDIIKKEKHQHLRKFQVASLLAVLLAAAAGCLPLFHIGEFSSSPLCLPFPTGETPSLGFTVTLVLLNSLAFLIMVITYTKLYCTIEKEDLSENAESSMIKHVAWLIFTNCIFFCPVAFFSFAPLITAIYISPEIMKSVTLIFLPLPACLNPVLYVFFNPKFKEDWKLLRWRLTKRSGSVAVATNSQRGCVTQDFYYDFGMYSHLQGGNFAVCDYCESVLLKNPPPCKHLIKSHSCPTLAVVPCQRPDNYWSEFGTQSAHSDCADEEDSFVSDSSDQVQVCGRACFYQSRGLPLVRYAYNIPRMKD
Kind of assay: Cell surface binding assay in HEK293T cells transfected with LGR4. The protocol: as §1

A further assay deals with BMP4 signaling. Kind of assay: BRE reporter assay in HEPG2 cells stimulated by BMP4. The class given is cell-based, human. The protocol:
BRE luciferase assays were executed using 300,000 ml^−1 of HEPG2 cells in 24-well plates. PGL3-BRE-Luciferase (500 ng ml^−1) and pRL-TK-Renilla plasmids (50 ng ml^−1) were transfected using Lipofectamine 3000. After 24 hours, cells were serum starved 2 hours and stimulated 14-16 hours with 80 ng ml^−1 recombinant human BMP4 protein (R&D systems 314-BP) along with AP tagged RSPO1-4 or flag tagged RSPO1-3 conditioned medium. Luciferase activity was measured with the Dual luciferase reporter assay system (Promega E1960). Firefly luminescence (BRE) was normalized to Renilla. TOPFlash luciferase assays were carried out as previously described (Berger et al. (2017), EMBO Rep 18, 712-725, doi: 10.15252/embr.201643585). […] Statistical analyses were made with the PRISM7 software using unpaired t-test or one-way ANOVA test. Not significant (ns) P>0.05, *P<0.05, **P<0.01, ***P<0.001, and ****P<0.0001.

T1 sequence (P36894 24-532): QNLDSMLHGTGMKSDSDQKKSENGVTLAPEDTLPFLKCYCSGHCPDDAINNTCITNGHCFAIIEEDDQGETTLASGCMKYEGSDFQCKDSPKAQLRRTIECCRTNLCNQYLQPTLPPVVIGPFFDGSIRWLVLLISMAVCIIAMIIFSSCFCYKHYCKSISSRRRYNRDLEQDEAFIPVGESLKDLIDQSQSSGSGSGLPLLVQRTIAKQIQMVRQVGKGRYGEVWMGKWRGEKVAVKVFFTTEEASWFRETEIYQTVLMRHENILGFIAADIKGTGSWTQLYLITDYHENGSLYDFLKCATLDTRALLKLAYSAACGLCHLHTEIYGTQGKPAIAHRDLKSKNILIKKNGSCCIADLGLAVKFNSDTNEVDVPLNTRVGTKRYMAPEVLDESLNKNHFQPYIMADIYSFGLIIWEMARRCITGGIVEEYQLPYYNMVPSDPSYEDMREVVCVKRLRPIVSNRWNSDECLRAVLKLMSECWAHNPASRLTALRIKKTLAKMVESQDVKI

B1: RSPO2: human R-spondin 2 protein (SEQ ID NO:1); conditioned medium or recombinant (Peprotech 120-43) (protein, listed as Homo sapiens)
chain: MQFRLFSFALIILNCMDYSHCQGNRWRRSKRASYVSNPICKGCLSCSKDNGCSRCQQKLFFFLRREGMRQYGECLHSCPSGYYGHRAPDMNRCARCRIENCDSCFSKDFCTKCKVGFYLHRGRCFDECPDGFAPLEETMECVEGCEVGHWSEWGTCSRNNRTCGFKWGLETRTRQIVKKPVKDTILCPTIAESRRCKMTMRHCPGGKRTPKAKEKRNKKKKRKLIERAQEQHSVFLATDRANQ
As for B1, the “ATRA-induced Smad1-phosphorylation, ID1 and CD11B expression” value in the assay on THP-1 cells is reported as “reverted these effects”. Moreover, the ALK3 binding result in the assay with ALK3 is on record as “required the TSP1—but not the FU domains”. Also, the LGR binding entry with LGR4 was “required the FU domains but not TSP1”. For the same molecule, the BMP4 signaling result with BMP4 signaling (HEPG2 cells, BMP4 stimulation, treatment with RSPO protein) is “decreased BMP4 signaling”. In addition, the “inhibition of BMP signaling by RSPO2 after knockdown of WNT pathway components” value in the assay with BMP4 signaling (siRNA knockdown of β-catenin, LGR4/5, LRP5/6, DVL1/2/3 and ROR1/2) was “remained unaffected”.

The record behind these values is patent US20250346890A1, “LEUKEMIA TREATMENT” (Deutsches Krebsforschungszentrum, priority 2019, published 2025).
